From article PMC8319368 (The Journal of Biological Chemistry, 2021) come the findings set out here.

Series [1] has as its target T1, Saccharomyces cerevisiae Pol32, PCNA-binding subunit of DNA polymerase delta (ScPol32) (Saccharomyces cerevisiae), P47110.
T1 chain: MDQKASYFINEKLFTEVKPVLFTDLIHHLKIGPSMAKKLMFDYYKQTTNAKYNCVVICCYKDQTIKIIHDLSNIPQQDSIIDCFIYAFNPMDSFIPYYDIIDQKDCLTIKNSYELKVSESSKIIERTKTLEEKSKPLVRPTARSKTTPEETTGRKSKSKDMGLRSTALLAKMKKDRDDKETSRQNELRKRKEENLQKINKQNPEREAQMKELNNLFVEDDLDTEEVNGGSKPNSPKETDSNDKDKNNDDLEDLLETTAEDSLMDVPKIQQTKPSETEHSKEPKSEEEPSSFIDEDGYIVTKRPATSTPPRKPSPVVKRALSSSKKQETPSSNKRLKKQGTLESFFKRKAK
Briefly: ITC. The note with it: remark: other sources report otherwise.

Series [2] deals with the molecule itself. As to the kind of experiment: native gel or EMSA.
Series [3] addresses T2, Saccharomyces cerevisiae Pol32, PCNA-binding subunit of DNA polymerase delta (ScPol32) (Saccharomyces cerevisiae, UniProt P47110 1-350).
T2 sequence: T1 chain
As to the kind of experiment: ITC. A general note: Isothermal titration calorimetry measures the heat released or taken up as one component is titrated into another.

B1: Saccharomyces cerevisiae PCNA (ScPCNA), wild type, P15873 1-258 (natural protein)
chain: MLEAKFEEASLFKRIIDGFKDCVQLVNFQCKEDGIIAQAVDDSRVLLVSLEIGVEAFQEYRCDHPVTLGMDLTSLSKILRCGNNTDTLTLIADNTPDSIILLFEDTKKDRIAEYSLKLMDIDADFLKIEELQYDSTLSLPSSEFSKIVRDLSQLSDSINIMITKETIKFVADGDIGSGSVIIKPFVDMEHPETSIKLEMDQPVDLTFGAKYLLDIIKGSSLSDRVGIRLSSEAPALFQFDLKSGFLQFFLAPKFNDEE
By Kd is commonly meant the equilibrium constant for the complex coming apart. The term stoichiometry N denotes a count of units in the complex or per binding partner. In series [1], B1 registered a Kd of 2.75 µM, a dH of -1.48 kcal/mol and a stoichiometry N of 1.05.

B2: Neurospora crassa proliferating cell nuclear antigen (NcPCNA), GST tag cleaved (natural protein)
chain: MLEARLEQASILKKVVDAIKDLVQDCNFDCNDSGIALQAMDNSHVALVSMMLKTETFSPFRCDRNIALGVNLTSLTKVLRAAQNEDILTLKAEDAPDVLNLVFESSENDRISEYDLKLMDIDQEHLGIPDTEYAATISMPSSEFKRITTDLMAMSESVNIEASKDGVKFSCQGDIGNGSITLRQHTNVDKPSENIEIELSEPVSLTFSLKYLVNFCKASALSSTVKICLSNEVPLLVEYNISASSYLRFYLAPKIGDEE
As for B2, the “stoichiometry N” value in series [2] was found to be 3. Also, in series [3], the Kd came out at 4.28 ± 0.325 µM, the dH was -1.24 ± 0.0554 kcal/mol and the “stoichiometry N” value is 1.06 ± 0.035.
